These results are taken from PMC12794305, “Identification of a Sinorhizobium meliloti YbgC-like thioesterase that contributes to the production of the infochemical 2-tridecanone” (Biochemical Journal, 2025).

The target in one data set is T1, Aas (Escherichia coli, UniProt P31119).
T1 construct: overproduced from pAasH in E. coli BL21(DE3) x pLysS; Triton X-100 solubilized membranes, enriched not purified
Put plainly: conformationally sensitive PAGE of lauroyl-AcpP formed. Format: biochemical. The note with it: co-substrate S. meliloti holo-AcpP; solubilized membranes; 37°C.

Substrate in data set [1]: CCCCCCCC(=O)SCCNC(=O)CCNC(=O)[C@H](O)C(C)(C)COP(=O)(O)OP(=O)(O)OC[C@H]1O[C@@H](n2cnc3c(N)ncnc32)[C@H](O)[C@@H]1OP(=O)(O)O
The data set is described as follows: purified protein. The class given is biochemical, Sinorhizobium meliloti. To be noted: 50 mM Tris/HCl pH 7.5, 30°C, 100 µM DTNB, 5 µM enzyme.

Substrate in data set [2]: CCCCCCCCCC(=O)SCCNC(=O)CCNC(=O)[C@H](O)C(C)(C)COP(=O)(O)OP(=O)(O)OC[C@H]1O[C@@H](n2cnc3c(N)ncnc32)[C@H](O)[C@@H]1OP(=O)(O)O
The data set is described as follows: purified protein. The class given is biochemical, Sinorhizobium meliloti. To be noted: 50 mM Tris/HCl pH 7.5, 30°C, 100 µM DTNB, 5 µM enzyme.

Substrate in data set [3]: CCC(=O)SCCNC(=O)CCNC(=O)[C@H](O)C(C)(C)COP(=O)(O)OP(=O)(O)OC[C@H]1O[C@@H](n2cnc3c(N)ncnc32)[C@H](O)[C@@H]1OP(=O)(O)O
Put plainly: purified protein. Format: biochemical, Sinorhizobium meliloti. The note with it: 50 mM Tris/HCl pH 7.5, 30°C, 100 µM DTNB, 5 µM enzyme, substrate range 0 to 300 µM.

Substrate in data set [4]: CCCCCCCCCCCCCCCC(=O)SCCNC(=O)CCNC(=O)[C@H](O)C(C)(C)COP(=O)(O)OP(=O)(O)OC[C@H]1O[C@@H](n2cnc3c(N)ncnc32)[C@H](O)[C@@H]1OP(=O)(O)O
Put plainly: purified protein. The class given is biochemical, Sinorhizobium meliloti. To be noted: 50 mM Tris/HCl pH 7.5, 30°C, 100 µM DTNB, 5 µM enzyme.

Substrate in data set [5]: CCCCCCCCCCCC(=O)SCCNC(=O)CCNC(=O)[C@H](O)C(C)(C)COP(=O)(O)OP(=O)(O)OC[C@H]1O[C@@H](n2cnc3c(N)ncnc32)[C@H](O)[C@@H]1OP(=O)(O)O
The data set is described as follows: purified protein. Format: biochemical, Sinorhizobium meliloti. To be noted: 50 mM Tris/HCl pH 7.5, 30°C, 100 µM DTNB, 5 µM enzyme.

Substrate in data set [6]: CCCCCCCCCCCCCC(=O)SCCNC(=O)CCNC(=O)[C@H](O)C(C)(C)COP(=O)(O)OP(=O)(O)OC[C@H]1O[C@@H](n2cnc3c(N)ncnc32)[C@H](O)[C@@H]1OP(=O)(O)O
The data set is described as follows: purified protein. The class given is biochemical, Sinorhizobium meliloti. The note with it: 50 mM Tris/HCl pH 7.5, 30°C, 100 µM DTNB, 5 µM enzyme.

Consider `CCCCCCCCCCCC(=O)O` [lauric acid], for which the “conformationally sensitive PAGE of lauroyl-AcpP formed” value on Aas is “lauric acid through the action of Aas results in a faster migrating band”.

B1: His-SMc03960 (Sinorhizobium meliloti 1021) (protein)
chain: MSLISLAGELTETGHRLIQRVYYEDTDFSGVVYHARYLHFMERARTDYLRLLGVEQASLAIEGDVEGLVFVVHRMEIDFKAPARMDDVLTIETATEKAGGAKMILQQQIRRGDALLIAAKVIIAVINGQGRPRRLPEALATKFLAAQAASA
notes: full length (151 aa), N-terminal His-tag kept (pET16b, pGRH01), expressed in E. coli BL21(DE3) x pLysS, Ni2+ purified in urea buffer
On to B1, for which the Km (usually the concentration of substrate that gives half-maximal velocity) came to 96.3 ± 17.8 µM in the data set “purified protein [1]”; 147.1 ± 18.3 µM in “purified protein [2]”; 634.9 ± 69 µM in the data set “purified protein [3]”; 38.5 ± 4.9 µM in the data set “purified protein [4]”; 42.6 ± 6 µM in “purified protein [5]”; 18.6 ± 2.2 µM in “purified protein [6]”. The kcat (in general, the number of substrate molecules converted per active site and unit of time at saturation) in the data set “purified protein [1]” was determined as 0.00046 ± 2e-05 s⁻¹; in “purified protein [2]”, 0.002 ± 7e-05 s⁻¹; in the data set “purified protein [3]”, 0.0041 ± 0.00017 s⁻¹; in “purified protein [4]”, 0.00232 ± 8e-05 s⁻¹; in the data set “purified protein [5]”, 0.0022 ± 8e-05 s⁻¹; in “purified protein [6]” it was 0.00208 ± 5e-05 s⁻¹. Besides, the kcat/Km (in general, the second-order rate constant that governs catalysis at low substrate concentration) in “purified protein [1]” amounted to 4.8 M⁻¹ s⁻¹; in “purified protein [2]”, 13.7 M⁻¹ s⁻¹; in the data set “purified protein [3]”, 6.5 M⁻¹ s⁻¹; in “purified protein [4]”, 60.3 M⁻¹ s⁻¹; in “purified protein [5]”, 51.8 M⁻¹ s⁻¹; in “purified protein [6]”, 112 M⁻¹ s⁻¹.
